# According to paper PMC4811492, “Dimeric peroxiredoxins are druggable targets in human Burkitt lymphoma” (Oncotarget, 2015):
# How the values were obtained:
# [1] = molecular target: the molecule itself; test: cross-linking; Raji or Ramos cells cultured with SK053 (10 uM, or indicated concentrations for 24 h) or SK-bio (55 uM, time course); lysates resolved under denaturing and reducing conditions, immunoblot with PRDX-specific antibodies; monomer ~22 kDa, dimer ~44 kDa
# [2] = molecular target: the molecule itself; test: cross-linking; HEK293T cells transfected with pLenti6-PRDX1-V5 (WT or Cys-to-Ala variants), 24 h later 41 uM SK053 or DMSO for 24 h; immunoblot with anti-V5 and anti-PRDX1
# [3] = molecular target: the molecule itself; test: cross-linking; recombinant human PRDX1 incubated with SK-bio in vitro (Supplementary Figure S7); dimer formation less efficient than in cells
Protein,stoichiometry N [1],stoichiometry N [2],also measured
"peroxiredoxin 4 (PRDX4), endogenous in Burkitt lymphoma cells (enzyme, human (endogenous in Raji and Ramos), UniProt Q13162 38-271, looked up, peroxiredoxin 4, human, endogenous in Raji and Ramos cells; source: endogenous, Raji and Ramos cells) WETEERPRTREEECHFYAGGQVYPGEASRVSVADHSLHLSKAKISKPAPYWEGTAVIDGEFKELKLTDYRGKYLVFFFYPLDFTFVCPTEIIAFGDRLEEFRSINTEVVACSVDSQFTHLAWINTPRRQGGLGPIRIPLLSDLTHQISKDYGVYLEDSGHTLRGLFIIDDKGILRQITLNDLPVGRSVDETLRLVQAFQYTDKHGEVCPAGWKPGSETIIPDPAGKLKYFDKLN",2,–,–
"peroxiredoxin 3 (PRDX3), endogenous in Burkitt lymphoma cells (enzyme, human (endogenous in Raji and Ramos), UniProt P30048 62-256, looked up, peroxiredoxin 3, human, endogenous in Raji and Ramos cells; source: endogenous, Raji and Ramos cells) APAVTQHAPYFKGTAVVNGEFKDLSLDDFKGKYLVLFFYPLDFTFVCPTEIVAFSDKANEFHDVNCEVVAVSVDSHFSHLAWINTPRKNGGLGHMNIALLSDLTKQISRDYGVLLEGSGLALRGLFIIDPNGVIKHLSVNDLPVGRSVEETLRLVKAFQYVETHGEVCPANWTPDSPTIKPSPAASKEYFQKVNQ",2,–,–
"peroxiredoxin 2 (PRDX2), endogenous in Burkitt lymphoma cells (enzyme, human (endogenous in Raji and Ramos), UniProt P32119 1-198, looked up, peroxiredoxin 2, human, endogenous in Raji and Ramos cells; source: endogenous, Raji and Ramos cells) MASGNARIGKPAPDFKATAVVDGAFKEVKLSDYKGKYVVLFFYPLDFTFVCPTEIIAFSNRAEDFRKLGCEVLGVSVDSQFTHLAWINTPRKEGGLGPLNIPLLADVTRRLSEDYGVLKTDEGIAYRGLFIIDGKGVLRQITVNDLPVGRSVDEALRLVQAFQYTDEHGEVCPAGWKPGSDTIKPNVDDSKEYFSKHN",2,–,–
"peroxiredoxin 1 (PRDX1), endogenous in Burkitt lymphoma cells (enzyme, human (endogenous in Raji and Ramos), UniProt Q06830 1-199, looked up, peroxiredoxin 1, human, endogenous in Raji and Ramos Burkitt lymphoma cells; source: endogenous, Raji and Ramos cells) MSSGNAKIGHPAPNFKATAVMPDGQFKDISLSDYKGKYVVFFFYPLDFTFVCPTEIIAFSDRAEEFKKLNCQVIGASVDSHFCHLAWVNTPKKQGGLGPMNIPLVSDPKRTIAQDYGVLKADEGISFRGLFIIDDKGILRQITVNDLPVGRSVDETLRLVQAFQFTDKHGEVCPAGWKPGSDTIKPDVQKSKEYFSKQK",2,–,–
"V5-tagged human wild-type PRDX1 (enzyme, UniProt Q06830 1-199, looked up, peroxiredoxin 1, human, wild type, expressed from pLenti6/V5-DEST-PRDX1; The vector pLenti6/V5-DEST usually adds the V5 tag at the C-terminus (surmised; the plasmid is printed as PRDX1-V5); also called PRDX1-V5; WT; source: HEK293T, transfected (pLenti6-PRDX1-V5), in cells) MSSGNAKIGHPAPNFKATAVMPDGQFKDISLSDYKGKYVVFFFYPLDFTFVCPTEIIAFSDRAEEFKKLNCQVIGASVDSHFCHLAWVNTPKKQGGLGPMNIPLVSDPKRTIAQDYGVLKADEGISFRGLFIIDDKGILRQITVNDLPVGRSVDETLRLVQAFQFTDKHGEVCPAGWKPGSDTIKPDVQKSKEYFSKQK",–,2,–
"recombinant human PRDX1 (enzyme, UniProt Q06830 1-199, looked up, peroxiredoxin 1, human, recombinant) MSSGNAKIGHPAPNFKATAVMPDGQFKDISLSDYKGKYVVFFFYPLDFTFVCPTEIIAFSDRAEEFKKLNCQVIGASVDSHFCHLAWVNTPKKQGGLGPMNIPLVSDPKRTIAQDYGVLKADEGISFRGLFIIDDKGILRQITVNDLPVGRSVDETLRLVQAFQFTDKHGEVCPAGWKPGSDTIKPDVQKSKEYFSKQK",–,–,stoichiometry N [3]: 2
"native untagged PRDX1, endogenous in HEK293T cells (enzyme, human (endogenous in HEK293T), UniProt Q06830 1-199, looked up, peroxiredoxin 1, human, endogenous untagged protein of HEK293T cells; also called native untagged form; source: endogenous, HEK293T cells) MSSGNAKIGHPAPNFKATAVMPDGQFKDISLSDYKGKYVVFFFYPLDFTFVCPTEIIAFSDRAEEFKKLNCQVIGASVDSHFCHLAWVNTPKKQGGLGPMNIPLVSDPKRTIAQDYGVLKADEGISFRGLFIIDDKGILRQITVNDLPVGRSVDETLRLVQAFQFTDKHGEVCPAGWKPGSDTIKPDVQKSKEYFSKQK",–,2,–
"V5-tagged human PRDX1 C83A (enzyme, UniProt Q06830 1-199, looked up, peroxiredoxin 1, human, Cys83 (outside the active site) changed to Ala; The vector pLenti6/V5-DEST usually adds the V5 tag at the C-terminus (surmised); source: HEK293T, transfected (pLenti6-PRDX1-V5), in cells) MSSGNAKIGHPAPNFKATAVMPDGQFKDISLSDYKGKYVVFFFYPLDFTFVCPTEIIAFSDRAEEFKKLNCQVIGASVDSHFAHLAWVNTPKKQGGLGPMNIPLVSDPKRTIAQDYGVLKADEGISFRGLFIIDDKGILRQITVNDLPVGRSVDETLRLVQAFQFTDKHGEVCPAGWKPGSDTIKPDVQKSKEYFSKQK",–,2,–
